The target of test [1] is C-reactive protein (pCRP) (Homo sapiens) (UniProt P02741). Conditions: cited from earlier work.
The target in test [2] is T1, C-reactive protein (pentameric, biotin-labeled) (Homo sapiens), P02741.
T1 chain: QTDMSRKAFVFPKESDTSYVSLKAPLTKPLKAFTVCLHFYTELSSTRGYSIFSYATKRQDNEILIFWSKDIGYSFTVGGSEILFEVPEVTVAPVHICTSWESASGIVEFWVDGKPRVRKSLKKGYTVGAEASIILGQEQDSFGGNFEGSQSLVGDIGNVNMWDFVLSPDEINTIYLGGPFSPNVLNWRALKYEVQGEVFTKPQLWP
Description: ELISA. Particulars: pCRP immobilized on hydrophobic surface, biotin-labeled solution pCRP, calcium required; remark: other sources report otherwise. Background: In an ELISA, binding on a coated surface is turned into a signal by an enzyme label.

As a reminder, the Kd is the equilibrium constant for the complex coming apart. Regarding “C-reactive protein (pCRP) (from UniProt P02741)”, the Kd in test [1] was 20 µM.

B1: C-reactive protein (surface-immobilized intermediate, CRPi), P02741 (protein)
chain: QTDMSRKAFVFPKESDTSYVSLKAPLTKPLKAFTVCLHFYTELSSTRGYSIFSYATKRQDNEILIFWSKDIGYSFTVGGSEILFEVPEVTVAPVHICTSWESASGIVEFWVDGKPRVRKSLKKGYTVGAEASIILGQEQDSFGGNFEGSQSLVGDIGNVNMWDFVLSPDEINTIYLGGPFSPNVLNWRALKYEVQGEVFTKPQLWP
For the molecule B1, the Kd in test [2] turned out to be 1.5 nM.

These data come from publication PMC5979025.
